Changes are numbered by the printed parent chain. Each block holds one substance with its values, some of them ahead of it.
Columns and labels:
[1] = target: T1, C4b (human, UniProt P0C0L4)
T1 sequence: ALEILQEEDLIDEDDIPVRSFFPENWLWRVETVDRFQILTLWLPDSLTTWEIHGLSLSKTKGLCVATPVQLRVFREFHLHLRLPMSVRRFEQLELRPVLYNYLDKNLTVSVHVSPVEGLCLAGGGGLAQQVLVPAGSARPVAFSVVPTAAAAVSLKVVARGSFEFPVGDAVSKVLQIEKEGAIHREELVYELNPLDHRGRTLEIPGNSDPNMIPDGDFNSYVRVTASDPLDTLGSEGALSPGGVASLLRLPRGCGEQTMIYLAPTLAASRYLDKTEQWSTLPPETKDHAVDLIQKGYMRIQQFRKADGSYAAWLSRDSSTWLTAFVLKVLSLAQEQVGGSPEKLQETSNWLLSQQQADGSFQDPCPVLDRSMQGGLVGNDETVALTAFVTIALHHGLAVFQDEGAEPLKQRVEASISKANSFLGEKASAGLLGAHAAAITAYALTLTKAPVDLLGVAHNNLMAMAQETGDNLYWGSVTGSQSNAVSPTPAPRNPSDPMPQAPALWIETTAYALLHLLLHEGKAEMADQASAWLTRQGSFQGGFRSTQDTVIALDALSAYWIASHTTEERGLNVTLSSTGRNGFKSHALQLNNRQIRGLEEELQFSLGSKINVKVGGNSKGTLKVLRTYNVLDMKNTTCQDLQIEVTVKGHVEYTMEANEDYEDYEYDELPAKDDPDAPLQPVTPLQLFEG

[2] = target: T2, C3b (human, UniProt P01024)
[3] = target: T2, C3b; remark: listed apart in the source
[4] = target: soluble human C3b (human) (UniProt P01024)
[5] = target: T3, human C4b (human) (UniProt P0C0L4)
T3 sequence: T1 sequence

[6] = target: soluble human C3b (human) (UniProt P01024); remark: listed apart in the source
[7] = target: T4, human C4b (human) (UniProt P0C0L5)
T4 sequence: T1 sequence with A151T, D317G, P364L, C365S, L368I, D369H, N420S, V451A, L454R, S530A

[8] = target: T2, C3b; remark: listed apart in the source
[9] = target: CFI-HSA (human serum albumin fused to the N-terminal end of wild type CFI) (human)
[10] = target: soluble human C3b (human) (UniProt P01024); remark: listed apart in the source
[11] = target: T3, human C4b (human); remark: listed apart in the source
[12] = target: T2, C3b; remark: listed apart in the source
[13] = target: T2, C3b; remark: listed apart in the source
[14] = target: soluble human C3b (human) (UniProt P01024); remark: listed apart in the source
[15] = target: T4, human C4b (human); remark: listed apart in the source
[16] = target: T1, C4b; remark: listed apart in the source
[17] = target: T2, C3b; remark: listed apart in the source
[18] = target: soluble human C3b (human) (UniProt P01024); remark: listed apart in the source

CFI-HSA (human serum albumin fused to the N-terminal end of wild type CFI) (enzyme), sequence (chain): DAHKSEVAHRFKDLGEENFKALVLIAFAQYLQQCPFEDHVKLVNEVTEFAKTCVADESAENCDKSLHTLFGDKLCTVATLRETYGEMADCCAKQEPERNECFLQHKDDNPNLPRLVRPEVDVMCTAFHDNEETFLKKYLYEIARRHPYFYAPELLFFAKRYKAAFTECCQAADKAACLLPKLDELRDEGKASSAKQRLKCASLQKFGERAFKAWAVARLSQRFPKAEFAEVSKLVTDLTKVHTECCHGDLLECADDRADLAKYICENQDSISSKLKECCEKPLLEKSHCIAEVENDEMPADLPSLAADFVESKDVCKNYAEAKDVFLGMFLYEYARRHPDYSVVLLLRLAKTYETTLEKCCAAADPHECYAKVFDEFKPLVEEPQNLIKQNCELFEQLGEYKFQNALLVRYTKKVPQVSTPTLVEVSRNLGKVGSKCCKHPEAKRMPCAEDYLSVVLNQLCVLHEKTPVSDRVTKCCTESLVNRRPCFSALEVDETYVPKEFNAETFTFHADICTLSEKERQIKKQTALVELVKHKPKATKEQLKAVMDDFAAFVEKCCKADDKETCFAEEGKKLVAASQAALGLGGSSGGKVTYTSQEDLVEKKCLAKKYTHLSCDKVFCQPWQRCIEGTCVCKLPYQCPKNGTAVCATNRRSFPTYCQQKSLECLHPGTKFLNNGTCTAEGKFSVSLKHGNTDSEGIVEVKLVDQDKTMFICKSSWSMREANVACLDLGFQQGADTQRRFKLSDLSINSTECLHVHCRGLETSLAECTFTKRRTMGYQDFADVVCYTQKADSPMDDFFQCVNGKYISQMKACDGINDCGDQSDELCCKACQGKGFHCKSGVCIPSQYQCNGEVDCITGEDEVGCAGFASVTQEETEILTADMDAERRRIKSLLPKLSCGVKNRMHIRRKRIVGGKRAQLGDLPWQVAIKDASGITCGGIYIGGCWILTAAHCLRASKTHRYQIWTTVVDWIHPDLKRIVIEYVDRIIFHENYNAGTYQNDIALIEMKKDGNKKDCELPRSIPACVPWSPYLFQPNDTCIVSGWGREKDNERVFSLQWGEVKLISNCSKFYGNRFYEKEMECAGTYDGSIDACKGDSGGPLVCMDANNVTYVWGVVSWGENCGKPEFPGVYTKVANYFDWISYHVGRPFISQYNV
CFI-HSA (human serum albumin fused to the N-terminal end of wild type CFI), sequence (chain): as above
recombinant human furin, sequence (P09958 108-715 limits assumed): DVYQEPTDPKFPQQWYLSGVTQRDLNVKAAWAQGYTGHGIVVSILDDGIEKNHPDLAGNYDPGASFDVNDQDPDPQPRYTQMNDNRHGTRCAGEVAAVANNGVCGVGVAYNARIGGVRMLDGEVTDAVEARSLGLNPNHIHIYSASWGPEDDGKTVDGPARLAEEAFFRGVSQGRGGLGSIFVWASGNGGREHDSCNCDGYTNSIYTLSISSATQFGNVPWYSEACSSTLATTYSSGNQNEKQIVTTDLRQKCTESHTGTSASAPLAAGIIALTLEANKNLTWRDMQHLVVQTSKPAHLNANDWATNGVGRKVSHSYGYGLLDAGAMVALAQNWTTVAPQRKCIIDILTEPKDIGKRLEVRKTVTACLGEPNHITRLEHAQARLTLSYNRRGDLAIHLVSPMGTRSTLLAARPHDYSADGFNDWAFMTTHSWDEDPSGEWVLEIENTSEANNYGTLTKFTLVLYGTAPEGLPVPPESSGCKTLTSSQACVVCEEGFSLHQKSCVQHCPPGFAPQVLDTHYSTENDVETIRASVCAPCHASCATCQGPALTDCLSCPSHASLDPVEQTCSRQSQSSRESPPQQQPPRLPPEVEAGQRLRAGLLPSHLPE

Substance: CFI-HSA variant N531G with hCR1; CCP15; CCP16; CCP17 C-terminal fusion (enzyme)
C4c No Cofactor EC50 (C4b cleavage, C4c ELISA) [1]: 76.2 nM

Substance: CFI-HSA variant E457G; P535G with hCR1; CCP15; CCP16; CCP17 C-terminal fusion (enzyme)
C4c No Cofactor EC50 (C4b cleavage, C4c ELISA) [1]: 35.9 nM

Substance: CFI-HSA variant K326A + R327A (enzyme)
C3b cleavage rate, kmut/kwt [2]: 0
C3b cleavage, % Activity [3]: 58%

Substance: CFI-HSA variant E461Q (enzyme)
iC3b EC50 [4]: 12 nM
C4c EC50 (nM) [5]: 121 nM
C3b cleavage rate, kmut/kwt [2]: 2
iC3b Screen Ref Fold (fold vs CFI-HSA wild type) [6]: 1.94
C4b Screen Ref Fold (fold vs CFI-HSA wild type) [7]: 5.47

Substance: CFI-HSA variant 456-… (SEQ ID NO: 9)-465 --> … (SEQ ID NO: 10) (human trypsin autolysis loop swap) (enzyme)
C3b cleavage rate, kmut/kwt [2]: 0
C3b cleavage, % Activity [3]: 18%

Substance: CFI-HSA variant E457G (enzyme)
iC3b EC50 [4]: 11.1 nM
C4c EC50 (nM) [5]: 138 nM
C3b cleavage rate, kmut/kwt [2]: 3
iC3b Screen Ref Fold (fold vs CFI-HSA wild type) [6]: 1.58
C4b Screen Ref Fold (fold vs CFI-HSA wild type) [7]: 5.37

Substance: CFI-HSA variant Y408L; E457G; N531G; P535G with hCR1; CCP15; CCP16; CCP17 C-terminal fusion (enzyme)
C4c No Cofactor EC50 (C4b cleavage, C4c ELISA) [1]: 97.7 nM

Substance: recombinant human furin (from UniProt P09958) (enzyme)
activation (cleavage) of CFI-HSA by furin [9]: > 90%

Substance: CFI-HSA variant L307G (enzyme)
iC3b EC50 [4]: 39.2 nM
C4c EC50 (nM) [5]: 316 nM
C3b cleavage rate, kmut/kwt [2]: 1
iC3b Screen Ref Fold (fold vs CFI-HSA wild type) [6]: 0.79
C4b Screen Ref Fold (fold vs CFI-HSA wild type) [7]: 2.85
C3b cleavage, % Activity [3]: 91%

Substance: CFI-HSA variant Y408L; N531G; P535G with hCR1; CCP15; CCP16; CCP17 C-terminal fusion (enzyme)
C4c No Cofactor EC50 (C4b cleavage, C4c ELISA) [1]: 50.1 nM

Substance: CFI-HSA variant D425K (enzyme)
C3b cleavage rate, kmut/kwt [2]: 1
iC3b Screen Ref Fold (fold of CFI-HSA wild type) [6]: 0.11
iC3b Screen Ref Fold (fold vs CFI-HSA wild type) [6]: 1.34
C4b Screen Ref Fold (fold of CFI-HSA wild type) [11]: 2.86
C4b Screen Ref Fold (fold vs CFI-HSA wild type) [7]: 0.42
C3b cleavage, % Activity [3]: 105%

Substance: CFI-HSA (hCR1; CCP15; CCP16; CCP17 C-terminal fusion) (enzyme)
Fold-decrease EC50 (iC3b) vs. CFI WT [10]: 0.79 fold

Substance: CFI-HSA variant N531G + P535A (enzyme)
C3dg formation in activated human serum (TRIFMA), EC50 WT/EC50Variant [12]: 26.2
C3b cleavage rate, kmut/kwt [2]: 3
C3dg formation (TRIFMA), EC50 against wild type (FIG. 10) [13]: 18 fold
C3b cleavage, % Activity [3]: 120%

Substance: CFI-HSA variant N531A (enzyme)
iC3b EC50 [4]: 24.3 nM
C4c EC50 (nM) [5]: 278 nM
C3b cleavage rate, kmut/kwt [2]: 1
iC3b Screen Ref Fold (fold vs CFI-HSA wild type) [6]: 1.21
C4b Screen Ref Fold (fold vs CFI-HSA wild type) [7]: 0.31

Substance: CFI-HSA variant P535A (enzyme)
C3b cleavage rate, kmut/kwt [2]: 1
iC3b Screen Ref Fold (fold vs CFI-HSA wild type) [6]: 1.01
C4b Screen Ref Fold (fold vs CFI-HSA wild type) [7]: 1.86

Substance: CFI-HSA (E457G; N531G variant) (enzyme)
Fold-decrease EC50 (iC3b) vs. CFI WT [10]: 3.86 fold

Substance: CFI-HSA variant D425R (enzyme)
C3dg formation in activated human serum (TRIFMA), EC50 WT/EC50Variant [12]: 4.2
C3b cleavage rate, kmut/kwt [2]: 2
iC3b Screen Ref Fold (fold vs CFI-HSA wild type) [6]: 1.46
C4b Screen Ref Fold (fold vs CFI-HSA wild type) [7]: 0.69
C3b cleavage, % Activity [3]: 104%

Substance: CFI-HSA variant N531G; P535A with hCR1; CCP15; CCP16; CCP17 C-terminal fusion (enzyme)
C4c No Cofactor EC50 (C4b cleavage, C4c ELISA) [1]: 50.3 nM

Substance: CFI-HSA variant E457G + CR1(CCP1-3) (from UniProt P17927) (enzyme)
CP IC50, classical pathway hemolysis of sensitised sheep red cells [16]: 122 nM
AP IC50, alternative pathway hemolysis [17]: 86 nM

Substance: CFI-HSA variant E457G + E461Q + R462K + F464Y (mouse CFI autolysis loop swap) (enzyme)
C3b cleavage rate, kmut/kwt [2]: 2

Substance: CFI-HSA variant N531G (enzyme)
iC3b EC50 [4]: 8.3 nM
C4c EC50 (nM) [5]: 58.4 nM
C3b cleavage rate, kmut/kwt [2]: 1
iC3b Screen Ref Fold (fold vs CFI-HSA wild type) [6]: 2.1
C4b Screen Ref Fold (fold vs CFI-HSA wild type) [7]: 6.26

Substance: CFI-HSA variant P535G with hCR1; CCP15; CCP16; CCP17 C-terminal fusion (enzyme)
C4c No Cofactor EC50 (C4b cleavage, C4c ELISA) [1]: 160 nM

Substance: CFI-HSA variant Y408L; N531G with hCR1; CCP15; CCP16; CCP17 C-terminal fusion (enzyme)
C4c No Cofactor EC50 (C4b cleavage, C4c ELISA) [1]: 57.1 nM

Substance: CFI-HSA (E416A; D425R; E457G; N531G variant) (enzyme)
Fold-decrease EC50 (iC3b) vs. CFI WT [10]: 8.03 fold

Substance: CFI-HSA (human serum albumin fused to the N-terminal end of wild type CFI)
C3b-enriched AP hemolytic assay IC50 [18]: 26.4 nM

Substance: CFI-HSA variant Y408L + N531G (enzyme)
C3dg formation in activated human serum (TRIFMA), EC50 WT/EC50Variant [12]: 0.6
C3b cleavage rate, kmut/kwt [2]: 3
C3b cleavage, % Activity [3]: 123%

The next lines start with the values.

iC3b EC50 [4]: 21.3 nM
C4c EC50 (nM) [5]: > 1000 nM
C3b cleavage rate, kmut/kwt [2]: 1
iC3b Screen Ref Fold (fold vs CFI-HSA wild type) [6]: 1.4
C4b Screen Ref Fold (fold vs CFI-HSA wild type) [7]: 1.46
C3b cleavage, % Activity [3]: 104%
Substance: CFI-HSA variant Y408L (enzyme)

iC3b EC50 [4]: > 500 nM
C4c EC50 (nM) [5]: 327 nM
C3b cleavage rate, kmut/kwt [2]: 0
iC3b Screen Ref Fold (fold relative to CFI-HSA wild type) [6]: -0.01
iC3b Screen Ref Fold (fold vs CFI-HSA wild type) [6]: 0.04
C4b Screen Ref Fold (fold relative to CFI-HSA wild type) [7]: 1.72
C4b Screen Ref Fold (fold vs CFI-HSA wild type) [7]: 1.74
C3b cleavage, % Activity [3]: 21%
Substance: CFI-HSA variant R557A (enzyme)

C4c No Cofactor EC50 (C4b cleavage, C4c ELISA) [1]: 104 nM
Substance: CFI-HSA variant Y408L; E457G; R462K; F464Y; N531G with hCR1; CCP15; CCP16; CCP17 C-terminal fusion (enzyme)

C4c No Cofactor EC50 (C4b cleavage, C4c ELISA) [1]: 44.8 nM
Substance: CFI-HSA variant E457G; N531G; P535G with hCR1; CCP15; CCP16; CCP17 C-terminal fusion (enzyme)

C4c No Cofactor EC50 (C4b cleavage, C4c ELISA) [1]: 63.5 nM
C3c No Cofactor EC50 (C3b cleavage, iC3b ELISA) [8]: 33.7 nM
Substance: HSA + CfI + GGSSGG (SEQ ID NO: 6) + CR1(ccp15-17) (enzyme)

Fold-decrease EC50 (iC3b) vs. CFI WT [10]: 3.67 fold
Substance: CFI-HSA (E416A; N531G variant) (enzyme)

C4c No Cofactor EC50 (C4b cleavage, C4c ELISA) [1]: 106 nM
Substance: CFI-HSA variant Y408L; E457G; E461Q; R462K; N531G with hCR1; CCP15; CCP16; CCP17 C-terminal fusion (enzyme)

C4c No Cofactor EC50 (C4b cleavage, C4c ELISA) [1]: 77.6 nM
Substance: CFI-HSA variant E457G; E461Q; N531G with hCR1; CCP15; CCP16; CCP17 C-terminal fusion (enzyme)

C4c No Cofactor EC50 (C4b cleavage, C4c ELISA) [1]: 156 nM
Substance: CFI-HSA variant Y408L; E457G; N531G with hCR1; CCP15; CCP16; CCP17 C-terminal fusion (enzyme)

C3b cleavage EC50 [14]: 25.5 nM
C4b cleavage EC50 [15]: 365 nM
Substance: CFI-HSA (human serum albumin fused to the N-terminal end of wild type CFI) (enzyme)

C3dg formation in activated human serum (TRIFMA), EC50 WT/EC50Variant [12]: 1.7
C3b cleavage rate, kmut/kwt [2]: 1
iC3b Screen Ref Fold (fold vs CFI-HSA wild type) [6]: 1.07
C4b Screen Ref Fold (fold vs CFI-HSA wild type) [7]: 2.71
C3b cleavage, % Activity [3]: 103%
Substance: CFI-HSA variant D425A (enzyme)
